This note sets out measurements from the domain aggregation screens of Martell et al. (2025).

The nature of this series: soluble fraction after stress (log2 fold change); higher = more stays soluble; pooled small domains, quantitative proteomics. The note with it: stress: 75 degC.

Where only a bound is given, the exact number is not on record here.
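Note: 20 min heating vs room temperature control held 20 min.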

Take “HMTPNRDDEHLQSLRDYYASNRRIPSLQRIAALLGFSSRSAAVKLMGRLADEGFVERTVDDDAWIPGSRFF”: the “soluble fraction (log2)” value was -1.14. Under “HMTPQDYEYLRKLLKDQSGLDLSVDKQYLLESRLVPLSRKAGLAGIPELVQKMKAGSASLTAQVVEAMTT” stands -0.11; under “HMTPVFGEEETVLQAAVRGIISDTDQWTMEAEAKSMLNQLGFSDYEEKMAHMSGGQKKRVALVNALLTP”, 0.116.

Consider “HMTQDFEPGGQVFSRGEWLTIIRVNKSNGAVSSVTTPNYSFLGYSGTMKVTPDRITDYKAPSAEEAAVAS”, for which the “soluble fraction (log2)” value is -0.451. Take “HMTQGRVTGDGVNVRSQPNTDSAILTRVSTGKVVELISLKDNWYNVVVNGTKGYIRADYVSPYDG”: the “soluble fraction (log2)” value is -0.904.

Consider “HMTQLPEVPVERGMVLEEVQSGWVGAVTRVEKSGGMHVVALEDRRGKSRSFRLGFGFLLEGQPIRLMPPAP”, for which the “soluble fraction (log2)” value was -1.89. Under “HMTRAETPMAFIRAMVEAYTERGLDPNQALRKAQITPSQLKSTNARVTTLQMEWMSETAMREL” stands -0.292. In the case of “HMTRDAQLAALERLMDDPSPVVRKAVLKGVQAAGTEGLLWLQQLSKNQTLGPYALALLTELR”, the “soluble fraction (log2)” value was -0.72.

With “HMTRNGTVTFFNHDKGYGFIKDVLTQESVFVHINSLSEPINEQNKVSFEIEMGPRGSNAINVKLI”, the “soluble fraction (log2)” value was -1.65. The value for “HMTRTEYMAQLEKYLKKLPHKEFQEAITFFNEYFDEAGPEKETAIMEELGSPKEAASELITNILNRHI” was -0.433; that for “HMTRTISKVAKELAINIETVRFYERRGLIEQPPKPELGYRHYPDETVNRIRFIKRAQELGFTLEEIANLLS” was -1.66; that for “HMTRVDALDQLAAIRFSSHIFAEDQDLRMVVVDGQRIGEGDIVRDEIRLEQITETGVIFEYQGERFPIDV” was -1.45. As for “HMTRYQHLAMLLEKRIAQGLYRNGERLPSVRSLSAEHGVSISTVQQAYYLLEQKQLIIPQSRSGYYVAPH”, the “soluble fraction (log2)” value is -4.46. Under “HMTSEVPVGSNVRIRASTLAGERDFEGTMLPPAGEGLTTLKLVNGYNLSYPSKDVLDIEFLGGAGE” stands 0.14. For the sequence “HMTSHPTHTILDGKVHVFMRDGSPFWWGGFHFKGKYLRTSTKQKNLDSAKTIAQQWYFQKQTEIASGE”, the “soluble fraction (log2)” value was -2.85. Under “HMTSKVTVLAVNGRITVSGKEQDETVSVYDTGGRLLYQGESDVINVPRKAMYIVTVSRKSYKVIV” stands -1.52; under “HMTSLAGIERFLASGAIAGVGEAMAHRLVQKFGKETLEIIEKKPSRLTEVAGVGKKTAAKIHASYMEK”, -0.344; under “HMTSLGLEGLVNTTAIATSDLRPSGWALAGERKIFVVSEGEFIDNGDKIRILTVDGNRIVVRKETNK”, -0.477.

As for “HMTSLTSDEEQIINVLRAEESVYINALATKSKIPLQKLLGLLIQLEFKGLIHSLPGSHYKIV”, the “soluble fraction (log2)” value is -0.221.

In the case of “HMTSNIIIVPNVVGMTKEQATAALAAAGLNIKLSGVETTDTAAVAVKQKPSANTKVEEGSVVTVEFDLK”, the “soluble fraction (log2)” value was not below 1.04. On to “HMTSPKSRIVSALLASPSRPEELAMRLGEDILTLMRTLTDFEASGIIQRLPDGRYTPTREYHLGLVDK”, for which the “soluble fraction (log2)” value is -0.12. The value for “HMTSPRRLYALIVEHVGKDGVMHRSDVENVLAKVESEMDVDDLLDQLEINGTIIRRQDGTWQLL” was -0.716; that for “HMTSRFITTEEGTLYVDADGRKVSGWQTIDGSRYYFDEHGIRQSGTIEVNGETYVLDEDGVL” was 0.0516.

On to “HMTSRWEIGYNVAKKYYDEHGNLDVERAVYDNFELKKWLNTQRYKNSAGTLAEKYKIKLDELGMNWER”, for which the “soluble fraction (log2)” value is -0.214.

“HMTSSQLYLIEEDMEGERLDAFLAEVIADLSRTAIKDLISNGRVLVDGQARKPSYRVKEGEQVLIHVPEAR”: the “soluble fraction (log2)” value was -0.392. Under “HMTSVFQNSDGTWGHLTKTVNPLIYTIEYGRRTGFSSREEAEESYQRSLTSYQDQLSKLKKERD” stands 0.297; under “HMTSVPGTVVTNANLRGGPGTNYPIVGKAPAGTTVNVVESTADRTWYYLDTGSWIAAFLVKLS”, -0.33; under “HMTSVRVPVKKEIWFWAIKESQRDLNEILARFPKMDKWINQEENPTFNQLEKVAKFLRVPFGYMFLDKPPK”, -1.86. Regarding “HMTTETGTVKWFNEGKGFGFIAPDGGGKDLFAHFKEIQGSGFKTLTENQRVQFEVTQGQKGPQASNIRTL”, the “soluble fraction (log2)” value came out at 0.227. The value for “HMTTHEQVAILRRELNGLVGAWHHRTGQAHGVTHSKLRKELGGPPAAVASAAQLSARIEKIRQWAT” was -0.922. The value for “HMTTIAQMTGPQRAAVILLVLGEDHGRTIWQEFDDDEIRIITRAMAELGTVDADEVERLMLDFVGKLSS” was -2.67. The value for “HMTTIAQNISNYRTRANMTQQQVADKLSVSHHTVSKWELGINTPSVEDMQKLAQVFGVTITELVVD” was -0.652; that for “HMTTIHVDPEKISKIIGPGGKTIKKIVEETGAKIDIEEDGRVYIAAVNSEEAAKAIDMINGI” was 0.0704. “HMTTIPAGRQQYILSLIRREGTVTVSRLAQELEVSELTIRRDLDQMAARNLVERTHGGATERR”: the “soluble fraction (log2)” value is -1.53. Turning to “HMTTKEEAAYQAIRSAIIDGELKPGQSVTIRDLASRFDLGRTPITDAMKHLALDGWLETTTGVGTRV”, the “soluble fraction (log2)” value is -0.183. In the case of “HMTTLAADFNSDGRVDIGDLSILAGNWGKSRTNEVDFNKYGDADYNGRIDIIDLSILATQFGQTDNSN”, the “soluble fraction (log2)” value stood at 0.321. Take “HMTTLDTVARQLRDRIREQLDPTGEMSDESLLRTIEEAVYRYSSSGHVLTANEKETVIRRIFHSFR”: the “soluble fraction (log2)” value was found to be 0.042.

As for “HMTTMNSADLIKELEKAGWTLRGVKGSHHIYTHPARGGHLSVPHPKKDLGAGLARQLRKQAGL”, the “soluble fraction (log2)” value is -0.032.

On to “HMTTPAAISKIKKLEEAKRLLATTTYSMKEIAVKLKYKSHTHFGMDFKNNTGMTPAEYRKAIKAKREKQMN”, for which the “soluble fraction (log2)” value was -1.96. The value for “HMTTQERVSYSAFINDVETGRVAKVVISGYTIEGTRTNNSSFVTERPYGVDSNLSEVLMQNSVSIEGKA” was -0.122; that for “HMTTQVNTVKIQLANGYEMTVLTSKTNVKEILEDNNIILENNEKVTPNIDEEISSNKTIKITDKSN” was 0.055; that for “HMTTTSGLIKTIQTGRRKLGMDDETYRALLADVSGGKTSSKDLNAYQLKEVLRRMREAGFRS” was 0.58. Consider “HMTVDAVALGRRVRHLRKQAGLTLDQLAERTGVSGSHLSLVENARREPRLSLVQRIAEVLGVPVEDL”, for which the “soluble fraction (log2)” value was -1.49. Under “HMTVGEKIQYYRKKIGLSQEELGQKMLLSRQTISLWEMDKTLPTVDNLLRLKEIFSVSIDELLSENEPK” stands -1.31. Under “HMTVKNFNDLPGFKNENLAELKAMGITTISELAEALNDGGKIKEIIKNLSGVGPKTAEKWKDAIG” stands not below 1.04; under “HMTVKVPDLRGKTLAEMQRILDDAGLKYEINDSTFSRTAIPGTVREVIPAPGSEVKLGRILFIAINGF”, -2.19. The value for “HMTVLIDEQSSDGLLKITVTANTAVKSITIADELLEDKEQLEDYLILVLNKAIARANQVNQTELDAVAK” was 0.0536; that for “HMTVPAGIVLSSIRQDGDVLHIRGTAQSTERLNFFRNSFSASWGSPAQNGKRKADPVTGLVDFTISLK” was -0.758; that for “HMTVPMKILILEDEQRNAMRLIRLLNDIDTTFIIEGPLTNIKEAVDFFQSGKTTDLILADIRL” was -0.254. “HMTVSADQTTADAVIKLIDAIGTVSKNSGSAISAARSGYDALTDAQKKLVTNYNKLTQAEQVFSSLS”: the “soluble fraction (log2)” value is 0.494. Under “HMTVSLTDVPFVPEILDRLERPELDVLLAILNGATNTFDLAAKTGRSRDELDEVLDRLTTLGLIER” stands -0.532; under “HMTVTLTTLRNGSTGAQVKTLQRLLSAMDYYNGETDGKFGISTAAAVKAFQRAKRLTVDGIVGKNTWTALL”, -1.2. As to “HMTVTMADISQAYNEKRYLTTISLSNTYLTFAKPTTELLSIRYRTYFIIGKYAESLTEIAKL”, the “soluble fraction (log2)” value was 0.294. With “HMTVTTDITQYFLQENGLLNGPNARQLRQKIGETLNIGYTNGKQLLKRAQQFGLTRDQILTALKK”, the “soluble fraction (log2)” value was -0.638.

For the sequence “HMTVVIKVQASQLESWKSSAGTEIKAKLIAVEDEKTYLFVTETGKTIRATAAQLDESSVSRARKLAGL”, the “soluble fraction (log2)” value was -2.37. “HMTYGYFELKAKNLDSLKQFLKGIAQVESIEEENNGLKVFLKNELESEELSEKLAEAKIFVSHLAKKK”: the “soluble fraction (log2)” value was -0.265.

As for “HMTYKPAADFKPSDTSSLKEGMKVEHPKFGFGTVMKMEEVGTERKARINFADFGEKTLLLSFAKLKIHEN”, the “soluble fraction (log2)” value was -0.256. Under “HMTYNEYPEKEMQDLIDKSISQQEQAASQYGYSLGDYVTARYGFQSESDFREYVQGLAEDYMKEKI” stands -0.476. Under “HMTYQHQSIIHRRTRGAILTAAKELLAESGISGTNMIEIADRAQVSRASLYNHFRDKHEVFLALVES” stands -0.591; under “HMTYSAWIEKAYSELEKKGITEAELSDALDKRGINLEDLKLMGPDEAVKYQSEVEGVVLELSKSKE”, 0.154. Turning to “HMTYSEEEIERDLYVRGTLYQIGDLVENKIDGTSGEIVRRGPNYVQYSDGENFYKAFLHSIQEV”, the “soluble fraction (log2)” value is 0.0161. Under “HMTYTMVAYGSQGDAVRQLQSELNRHGYQLDEDGVFGKKTRAAVRDYQKKNSLRLDGIAGDETWGSLLA” stands 0.696; under “HMTYTPRAGSLASQVIGFFRHNPDEELLLDDITDKFDATRGNIHTLLAEAVRFKLLARYRNDDGDYVYKPG”, -3.06; under “HMVAADTVQVPDVTGKTVADAKQALISAGLQVGTVTAKDGKETANTILETSPAAGTSVDKGSKVNLVYSTG”, 0.00808. For “HMVAAITDLPVKSVNGRQMYYYVVRKGETVYSLTHTLGITHDRLVKANRSVEDGLRAGQILYFPVSEFG”, the “soluble fraction (log2)” value was -2.95. Under “HMVAELAEMAENKNITSAQLALAWILKQSENIIPIPGTKRIKYLNENIEAVNVDLSKEDVENIENLLRKYP” stands -0.104; under “HMVAGHLQEKNGQFYAVLSYKDTKGKRRTKWVPTGLMVRGNKKRAEAMLNDIRRKFVPPEQED”, -0.474.

Take “HMVAGPDEPLSDREQGVLDLLAEGLSNKAISKQLGISVATVKSHLSNIYGKLQAENRMQAVARARELGLM”: the “soluble fraction (log2)” value is not below 1.04. Under “HMVAISNTSGLAGVAYWIQSNIPKGIDIRKDNPGIVTIKNWIDEEYRKGRTTTISEEEMFKLVREYMPEL” stands -1.87; under “HMVAMGQRVVPLTHLSIDDVRRLLESTYGKDSGIEVTKPGTAAKGVIVTAPRTELDGIVALVKQA”, -0.113.
